In article PMC9482650, “Quantitative fragmentomics allow affinity mapping of interactomes” (Nature Communications, 2022):

T1: GRIP1_4, Q9Y3R0
T1 sequence (Q9Y3R0 467-571, limits assumed, looked up): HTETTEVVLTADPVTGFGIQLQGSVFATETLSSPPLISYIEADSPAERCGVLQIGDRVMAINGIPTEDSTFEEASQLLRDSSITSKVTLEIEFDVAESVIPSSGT

T2: MPDZ_10, O75970
T2 sequence (O75970 1624-1722, limits assumed, looked up): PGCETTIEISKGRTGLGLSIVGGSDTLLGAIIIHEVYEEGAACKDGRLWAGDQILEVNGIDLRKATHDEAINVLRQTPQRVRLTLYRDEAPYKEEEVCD

T3: NHERF3_3, Q5T2W1
T3 sequence (Q5T2W1 238-333, limits assumed, looked up): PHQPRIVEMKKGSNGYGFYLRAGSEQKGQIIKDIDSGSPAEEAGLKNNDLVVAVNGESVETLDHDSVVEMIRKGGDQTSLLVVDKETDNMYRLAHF

T4: APBA1_2, Q02410
T4 sequence (Q02410 742-832, limits assumed, looked up): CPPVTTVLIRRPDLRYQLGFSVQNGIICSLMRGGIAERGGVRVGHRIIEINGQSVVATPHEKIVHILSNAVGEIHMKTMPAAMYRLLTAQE

T5: SNTA1, Q13424
T5 sequence (Q13424 82-180, limits assumed, looked up): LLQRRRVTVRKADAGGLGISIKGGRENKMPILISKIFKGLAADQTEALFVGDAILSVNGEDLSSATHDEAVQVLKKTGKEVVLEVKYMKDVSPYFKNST

T6: APBA2_1, Q99767
T6 sequence (Q99767 563-664, limits assumed, looked up): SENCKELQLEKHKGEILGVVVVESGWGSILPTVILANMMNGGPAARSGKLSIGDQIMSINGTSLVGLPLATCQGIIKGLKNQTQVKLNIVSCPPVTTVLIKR

T7: HTRA3, P83110
T7 sequence (P83110 354-453, limits assumed, looked up): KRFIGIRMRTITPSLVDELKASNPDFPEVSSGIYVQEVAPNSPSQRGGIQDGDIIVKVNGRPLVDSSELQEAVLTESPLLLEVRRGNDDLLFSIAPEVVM

T8: LNX2_3, Q8N448
T8 sequence (Q8N448 463-564, limits assumed, looked up): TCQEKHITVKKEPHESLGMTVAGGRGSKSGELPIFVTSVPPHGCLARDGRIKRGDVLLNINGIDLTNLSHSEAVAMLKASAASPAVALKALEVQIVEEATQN

T9: DVL3, Q92997
T9 sequence (Q92997 244-331, limits assumed, looked up): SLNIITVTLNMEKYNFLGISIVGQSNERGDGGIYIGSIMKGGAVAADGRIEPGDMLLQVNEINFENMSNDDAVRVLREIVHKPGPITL

T10: LNX2_2, Q8N448
T10 sequence (Q8N448 334-432, limits assumed, looked up): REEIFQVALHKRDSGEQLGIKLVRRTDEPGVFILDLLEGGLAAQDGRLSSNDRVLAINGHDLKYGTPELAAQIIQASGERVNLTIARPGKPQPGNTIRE

T11: LIN7C, Q9NUP9
T11 sequence (Q9NUP9 88-185, limits assumed, looked up): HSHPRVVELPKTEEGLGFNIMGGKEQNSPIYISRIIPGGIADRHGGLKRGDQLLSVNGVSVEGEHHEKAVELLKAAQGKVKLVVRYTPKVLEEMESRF

T12: APBA1_1, Q02410
T12 sequence (Q02410 651-752, limits assumed, looked up): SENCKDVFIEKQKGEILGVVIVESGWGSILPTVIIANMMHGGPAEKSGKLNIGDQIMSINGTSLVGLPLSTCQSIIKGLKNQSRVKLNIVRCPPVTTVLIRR

T13: APBA2_2, Q99767
T13 sequence (Q99767 654-744, limits assumed, looked up): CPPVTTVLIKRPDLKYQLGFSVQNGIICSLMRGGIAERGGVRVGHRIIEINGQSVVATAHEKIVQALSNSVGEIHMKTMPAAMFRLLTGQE


Experiments:
Assay in all cases: holdup assay
Set-up in all cases: key: below the threshold = too weak to quantify, mostly under pKd 3.1 to 4
Conditions in all cases: plain residues with an end cap or a label only (N-terminal biotin on a linker: ado-ado)
LNX1_3, Q8TBB1 = target: LNX1_3, Q8TBB1
LNX1_3, Q8TBB1, sequence (Q8TBB1 500-596): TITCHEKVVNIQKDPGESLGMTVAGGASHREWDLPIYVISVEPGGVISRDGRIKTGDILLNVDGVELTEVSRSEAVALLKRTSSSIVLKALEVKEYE

SCRIB_1, Q14160 = target: SCRIB_1, Q14160
SCRIB_1, Q14160, sequence (Q14160 718-814): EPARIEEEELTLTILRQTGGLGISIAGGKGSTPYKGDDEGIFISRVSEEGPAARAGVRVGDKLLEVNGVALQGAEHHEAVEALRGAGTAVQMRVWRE

FRMPD2_3, Q68DX3 = target: FRMPD2_3, Q68DX3
FRMPD2_3, Q68DX3, sequence (Q68DX3 1073-1166): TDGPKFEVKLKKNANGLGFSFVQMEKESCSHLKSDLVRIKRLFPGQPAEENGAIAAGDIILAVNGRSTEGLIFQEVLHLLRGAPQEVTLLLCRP

GRIP1_4, Q9Y3R0 = target: T1, GRIP1_4, Q9Y3R0
MPDZ_10, O75970 = target: T2, MPDZ_10, O75970
NHERF3_3, Q5T2W1 = target: T3, NHERF3_3, Q5T2W1
APBA1_2, Q02410 = target: T4, APBA1_2, Q02410
SNTA1, Q13424 = target: T5, SNTA1, Q13424
APBA2_1, Q99767 = target: T6, APBA2_1, Q99767
HTRA3, P83110 = target: T7, HTRA3, P83110
LNX2_3, Q8N448 = target: T8, LNX2_3, Q8N448
DLG4_1, P78352 = target: DLG4_1, P78352
DLG4_1, P78352, sequence (P78352 62-152): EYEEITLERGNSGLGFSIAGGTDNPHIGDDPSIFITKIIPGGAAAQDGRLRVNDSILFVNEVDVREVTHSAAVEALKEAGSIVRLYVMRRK

DVL3, Q92997 = target: T9, DVL3, Q92997
LNX2_2, Q8N448 = target: T10, LNX2_2, Q8N448
MAGI2_2, Q86UL8 = target: MAGI2_2, Q86UL8
MAGI2_2, Q86UL8, sequence (Q86UL8 410-522): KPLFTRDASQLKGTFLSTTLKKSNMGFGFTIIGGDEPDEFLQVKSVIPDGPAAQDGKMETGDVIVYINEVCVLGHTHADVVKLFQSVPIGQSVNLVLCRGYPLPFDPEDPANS

PDLIM1, O00151 = target: PDLIM1, O00151
PDLIM1, O00151, sequence (O00151 1-87): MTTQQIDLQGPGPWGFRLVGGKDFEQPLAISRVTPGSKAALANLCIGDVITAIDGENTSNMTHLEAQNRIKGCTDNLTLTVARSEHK

LNX1_2, Q8TBB1 = target: LNX1_2, Q8TBB1
LNX1_2, Q8TBB1, sequence (Q8TBB1 371-470): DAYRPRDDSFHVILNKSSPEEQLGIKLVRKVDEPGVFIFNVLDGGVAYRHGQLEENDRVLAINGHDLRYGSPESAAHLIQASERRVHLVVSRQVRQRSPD

Inadl_4, Q8NI35 = target: Inadl_4, Q8NI35
Inadl_4, Q8NI35, sequence (Q8NI35 547-651): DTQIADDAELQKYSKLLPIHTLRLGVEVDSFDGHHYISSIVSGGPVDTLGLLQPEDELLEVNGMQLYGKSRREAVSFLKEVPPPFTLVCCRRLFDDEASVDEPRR

LIN7C, Q9NUP9 = target: T11, LIN7C, Q9NUP9
GRID2IP_1, A4D2P6 = target: GRID2IP_1, A4D2P6
GRID2IP_1, A4D2P6, sequence (A4D2P6 1-87): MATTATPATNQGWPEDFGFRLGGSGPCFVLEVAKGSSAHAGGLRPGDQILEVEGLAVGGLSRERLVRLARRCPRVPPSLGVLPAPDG

APBA1_1, Q02410 = target: T12, APBA1_1, Q02410
NHERF4_2, Q86UT5 = target: NHERF4_2, Q86UT5
NHERF4_2, Q86UT5, sequence (Q86UT5 220-308): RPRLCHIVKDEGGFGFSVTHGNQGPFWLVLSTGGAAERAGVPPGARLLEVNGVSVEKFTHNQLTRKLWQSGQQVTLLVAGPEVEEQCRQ

GRIP2_4, Q9C0E4 = target: GRIP2_4, Q9C0E4
GRIP2_4, Q9C0E4, sequence (Q9C0E4 446-548): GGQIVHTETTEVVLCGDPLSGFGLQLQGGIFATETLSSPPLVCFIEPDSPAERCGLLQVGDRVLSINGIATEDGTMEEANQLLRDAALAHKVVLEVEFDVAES

NHERF4_4, Q86UT5 = target: NHERF4_4, Q86UT5
NHERF4_4, Q86UT5, sequence (Q86UT5 464-550): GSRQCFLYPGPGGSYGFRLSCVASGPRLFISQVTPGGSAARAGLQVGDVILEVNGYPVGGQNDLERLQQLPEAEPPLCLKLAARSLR

APBA2_2, Q99767 = target: T13, APBA2_2, Q99767

Row | pKd (LNX1_3, Q8TBB1) | pKd (SCRIB_1, Q14160) | pKd (FRMPD2_3, Q68DX3) | pKd (GRIP1_4, Q9Y3R0) | pKd (MPDZ_10, O75970) | pKd (NHERF3_3, Q5T2W1) | pKd (APBA1_2, Q02410) | pKd (SNTA1, Q13424) | pKd (APBA2_1, Q99767) | pKd (HTRA3, P83110) | pKd (LNX2_3, Q8N448) | pKd (DLG4_1, P78352) | pKd (DVL3, Q92997) | pKd (LNX2_2, Q8N448) | pKd (MAGI2_2, Q86UL8) | pKd (PDLIM1, O00151) | pKd (LNX1_2, Q8TBB1) | pKd (Inadl_4, Q8NI35) | pKd (LIN7C, Q9NUP9) | pKd (GRID2IP_1, A4D2P6) | Binder | other results
1 | below the threshold | below the threshold | below the threshold | below the threshold | below the threshold | below the threshold | 3.75 | below the threshold | below the threshold | below the threshold | below the threshold | below the threshold | below the threshold | below the threshold | below the threshold | below the threshold | below the threshold | below the threshold | below the threshold | below the threshold | LGHTPFVDEL [UQCRC2, P22695] | pKd (APBA1_1, Q02410): below the threshold; pKd (NHERF4_2, Q86UT5): below the threshold; pKd (GRIP2_4, Q9C0E4): below the threshold; pKd (NHERF4_4, Q86UT5): below the threshold; pKd (APBA2_2, Q99767): below the threshold
2 | below the threshold | 3.91 | below the threshold | below the threshold | 3.7 | below the threshold | 4.36 | 4.13 | below the threshold | 5.54 | below the threshold | 4.26 | 3.93 | 4.69 | below the threshold | 4.14 | 3.78 | below the threshold | 3.94 | below the threshold | QYPGSPDSWV [PKP4, Q99569] | pKd (APBA1_1, Q02410): below the threshold; pKd (NHERF4_2, Q86UT5): below the threshold; pKd (GRIP2_4, Q9C0E4): below the threshold; pKd (NHERF4_4, Q86UT5): below the threshold; pKd (APBA2_2, Q99767): below the threshold

More lines, now with the values behind:

Row | Binder | pKd (LNX1_3, Q8TBB1) | pKd (SCRIB_1, Q14160) | pKd (FRMPD2_3, Q68DX3) | pKd (GRIP1_4, Q9Y3R0) | pKd (MPDZ_10, O75970) | pKd (NHERF3_3, Q5T2W1) | pKd (APBA1_2, Q02410) | pKd (SNTA1, Q13424) | pKd (APBA2_1, Q99767) | pKd (HTRA3, P83110) | pKd (LNX2_3, Q8N448) | pKd (DLG4_1, P78352) | pKd (DVL3, Q92997) | pKd (LNX2_2, Q8N448) | pKd (MAGI2_2, Q86UL8) | pKd (PDLIM1, O00151) | pKd (LNX1_2, Q8TBB1) | pKd (Inadl_4, Q8NI35) | pKd (LIN7C, Q9NUP9) | pKd (GRID2IP_1, A4D2P6) | other results
3 | GDGLDDEIAV [NOS1AP, O75052] | below the threshold | below the threshold | 3.82 | below the threshold | below the threshold | below the threshold | below the threshold | 3.75 | below the threshold | below the threshold | below the threshold | below the threshold | below the threshold | 4.37 | below the threshold | below the threshold | 3.68 | below the threshold | below the threshold | below the threshold | pKd (APBA1_1, Q02410): below the threshold; pKd (NHERF4_2, Q86UT5): below the threshold; pKd (GRIP2_4, Q9C0E4): below the threshold; pKd (NHERF4_4, Q86UT5): below the threshold; pKd (APBA2_2, Q99767): below the threshold
4 | DFRHKSSFVI [JAM3, Q9BX67] | below the threshold | below the threshold | below the threshold | below the threshold | below the threshold | below the threshold | below the threshold | below the threshold | below the threshold | 3.89 | below the threshold | below the threshold | below the threshold | 4.15 | below the threshold | below the threshold | below the threshold | below the threshold | 3.93 | below the threshold | pKd (APBA1_1, Q02410): below the threshold; pKd (NHERF4_2, Q86UT5): below the threshold; pKd (GRIP2_4, Q9C0E4): below the threshold; pKd (NHERF4_4, Q86UT5): below the threshold; pKd (APBA2_2, Q99767): below the threshold
5 | YPKQMPLSQV [FZD8, Q9H461] | below the threshold | below the threshold | below the threshold | below the threshold | 3.7 | below the threshold | 3.81 | 3.67 | below the threshold | below the threshold | below the threshold | 3.69 | below the threshold | below the threshold | 4.29 | below the threshold | below the threshold | below the threshold | below the threshold | below the threshold | pKd (APBA1_1, Q02410): below the threshold; pKd (NHERF4_2, Q86UT5): below the threshold; pKd (GRIP2_4, Q9C0E4): below the threshold; pKd (NHERF4_4, Q86UT5): below the threshold; pKd (APBA2_2, Q99767): below the threshold
